# Laboratory results from patent publication US20150218281A1 (Ablynx, published 2015).
# T1: biotinylated hOX40L (R&D Systems, biotinylated in house) (human, UniProt P23510 51-183, biotinylated with Sulfo-NHS-LC-Biotin, sites not stated)
# T1 construct: same bought protein as m10, biotinylated; also called biotinylated OX40L
# T1 sequence: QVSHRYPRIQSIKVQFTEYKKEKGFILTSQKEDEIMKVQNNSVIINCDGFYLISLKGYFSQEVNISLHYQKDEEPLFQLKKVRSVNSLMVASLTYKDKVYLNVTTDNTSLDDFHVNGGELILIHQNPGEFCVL
# Biological target: T1, biotinylated hOX40L (R&D Systems, …)
# Experiment: hOX40L/hOX40 AlphaScreen, assay 1, native
# Experimental: Next, streptavidin donor beads were added and incubated for an additional 1 hour. Fluorescence was measured by reading plates on the EnVision Multilabel Plate Reader using an excitation wavelength of 680 nm and an emission wavelength of 520 nm. […]
binder,measurement,value
"OX40L15B07 (VHH, monovalent Nanobody from E. coli; not shown: C-terminal c-myc and His6 tag) VHH: EVQLVESGGGLVQAGGSLRLSCAASRSIGRLDRMGWYRHRTGEPRELVATITGGSSINYGDFVKGRFTISIDNAKNTVYLQMNNLKPEDTAVYYCNFNKYVTSRDTWGQGTQVTVSS",IC50,0.102 nM
